Measurements as given in the supplement of paper PMC7877785.
± gives the uncertainty stated by the source.

Test: self-splicing fitness, log relative to wild type (ln ratio); higher = more splicing; Tetrahymena group I intron in knt gene, E. coli kanamycin selection, DiMSum; sequences stand for … in CUCUCU…GGAGGGAAAAGUUAUCAGGCAUGCACCUGGUAGCUAGUCUUUAAACCAAUAGAUUGCAUCGGUUUAAAAGGCAAGACCGUCAAAUUGCGGGAAAGGGGUCAACAGCCGUUCAGUACCAAGUCUCAGGGGAAACUUUGAGAUGGCCUUGCAAAGGGUAUGGUAAUAAGCUGACGGACAUGGUCCUAACCACGCAGCCAAGUCCUAAGUCAACAGAUCUUCUGUUGAUAUGGAUGCAGUUCACAGACUAAAUGUCGGUCGGGGAAGAUGUAUUCUUCUCAUAAGAUAUAGUCGGACCUCUCCUUAAUGGGAGCUAGCGGAUGAAGUGAUGCAACACUGGAGCCGCUGGGAACUAAUUUGUAUGCGAAAGUAUAUUGAUUAGUUUUGGAGUACUCGUGGUCG
In short: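 Six replicate transformations of E. coli BL21(DE3) with a pET-22b(+) library were grown overnight at 37°C or 30°C. The library randomised all eight P1ex-region intron nucleotides, the intron lying in the knt kanamycin-resistance gene, and plates were LB agar with or without 25 μg/mL kanamycin plus 100 μg/mL carbenicillin, 50 μM IPTG and 0.2% rhamnose. Pooled colonies were amplicon-sequenced on an Illumina HiSeq 2500, and fitness is the DiMSum error-weighted combination of wild-type-normalised replicate fold changes, kanamycin versus none.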

Sequence	self-splicing fitness (ln) (30 °C)	self-splicing fitness (ln) (37 °C)
CAGGAGCAAUAUUACGACUA	0.224 ± 0.31	-0.98 ± 0.34
CGGAAGCAAUAUUACGUAAA	-2.94 ± 0.21	-1.79 ± 0.23
AUACAGCAAUAUUACGAGCC	-2.64 ± 0.27	
AAGGAGCAAUAUUACGUGUA		-2.29 ± 0.27
CCUCAGCAAUAUUACGAGAC	-3.31 ± 0.32	-2.88 ± 0.35
GCCUAGCAAUAUUACGUACG	-2.67 ± 0.23	-1.52 ± 0.24
UUCCAGCAAUAUUACGGUCC	-1.79 ± 0.15	-2.18 ± 0.17
UUCCAGCAAUAUUACGUCCU	-2.67 ± 0.21	-2.29 ± 0.32
CCCUAGCAAUAUUACGUAGU	-3.63 ± 0.18	-2.51 ± 0.17
UAAGAGCAAUAUUACGGAAU	-3.52 ± 0.41	-2.14 ± 0.41
AAGUAGCAAUAUUACGGCGA	-0.41 ± 0.11	-0.0374 ± 0.11
GGUUAGCAAUAUUACGCACG	-0.656 ± 0.11	-0.507 ± 0.13
CUAUAGCAAUAUUACGGCCG	0.0895 ± 0.15	-0.314 ± 0.15
GGGUAGCAAUAUUACGCUAC	-1.81 ± 0.34	
AUUCAGCAAUAUUACGAGAG	-2.65 ± 0.11	-1.38 ± 0.1
ACGGAGCAAUAUUACGACGA	-1.49 ± 0.1	-0.442 ± 0.13
UCGCAGCAAUAUUACGCUAA	-1.96 ± 0.14	-1.72 ± 0.15
CCGCAGCAAUAUUACGGGAU	-4.16 ± 0.33	-1.82 ± 0.16
AAUGAGCAAUAUUACGGAAG	-3.49 ± 0.3	-2.63 ± 0.23
UGCAAGCAAUAUUACGAAGG	-1.6 ± 0.12	-1.47 ± 0.2
ACAGAGCAAUAUUACGUCAG	-3.02 ± 0.13	-2.43 ± 0.2
CAUUAGCAAUAUUACGCCUG	-1.4 ± 0.12	-0.136 ± 0.12
CAGCAGCAAUAUUACGGUGC	-2.99 ± 0.17	-2.1 ± 0.28
CCAGAGCAAUAUUACGGGCU	-3.24 ± 0.3	
AGCGAGCAAUAUUACGAUAC	-3.47 ± 0.47	-2.29 ± 0.39

Sequence	self-splicing fitness (ln) (30 °C)	self-splicing fitness (ln) (37 °C)
UUAAAGCAAUAUUACGCGGC	-2.74 ± 0.29	-1.03 ± 0.2
CGCAAGCAAUAUUACGAUAC	-2.51 ± 0.17	-2.58 ± 0.33
UCUUAGCAAUAUUACGACGG	-0.955 ± 0.15	-0.0318 ± 0.2
GGCGAGCAAUAUUACGCGGA	-2.3 ± 0.17	-0.458 ± 0.13
GCAUAGCAAUAUUACGUCUG	-1.87 ± 0.068	-0.701 ± 0.072
GCUUAGCAAUAUUACGCUAC		-3.24 ± 0.28
GUGCAGCAAUAUUACGUAUC	-1.69 ± 0.13	-1.79 ± 0.13
CUUGAGCAAUAUUACGAUUU		-2.09 ± 0.39
UGUGAGCAAUAUUACGCCGU		-1.71 ± 0.47
GUAAAGCAAUAUUACGGAUU	-0.675 ± 0.079	-0.288 ± 0.1
AAGGAGCAAUAUUACGCCAA	-4.19 ± 0.46	-3.11 ± 0.3
UACUAGCAAUAUUACGCUUU	-2.09 ± 0.11	-2.16 ± 0.17
CACAAGCAAUAUUACGUUGA	-3.84 ± 0.2	-1.64 ± 0.1
CGCGAGCAAUAUUACGGGCA	-0.464 ± 0.084	-0.0497 ± 0.11
ACGUAGCAAUAUUACGGAUA	-2.48 ± 0.15	-0.584 ± 0.11
GUAUAGCAAUAUUACGCCGA	-2.97 ± 0.41	-0.946 ± 0.36
CUGGAGCAAUAUUACGCAGA	-3.56 ± 0.37	
UCAGAGCAAUAUUACGUCAU	-3.84 ± 0.35	
AACCAGCAAUAUUACGCUAA	-1.36 ± 0.068	-0.61 ± 0.07
GGUUAGCAAUAUUACGGGCG	0.777 ± 0.094	0.208 ± 0.1
CAACAGCAAUAUUACGUGCU	-3.48 ± 0.13	-2.27 ± 0.12
CGGAAGCAAUAUUACGGAAA	-1.12 ± 0.21	-2.23 ± 0.29
CAAAAGCAAUAUUACGAUUC	-2.41 ± 0.11	-0.98 ± 0.089
UCUAAGCAAUAUUACGAUGC	-3.03 ± 0.18	-2.28 ± 0.21
UCUGAGCAAUAUUACGAACG	-2.04 ± 0.34	-1.65 ± 0.38

Sequence	self-splicing fitness (ln) (30 °C)	self-splicing fitness (ln) (37 °C)
UGUCAGCAAUAUUACGCCAA	-0.858 ± 0.13	-0.585 ± 0.13
CAGCAGCAAUAUUACGGACC		-1.84 ± 0.34
CCUCAGCAAUAUUACGAAAU	-3.99 ± 0.28	-2.15 ± 0.34
CACGAGCAAUAUUACGUGCG	-3.73 ± 0.19	-2.09 ± 0.15
AGGUAGCAAUAUUACGUCCC	-1.02 ± 0.025	-0.535 ± 0.042
AAUUAGCAAUAUUACGUCCU	-0.344 ± 0.11	0.561 ± 0.16
GUGAAGCAAUAUUACGGCGG	-1.24 ± 0.13	-1.26 ± 0.14
AAGUAGCAAUAUUACGCAUU	-2.16 ± 0.14	-0.921 ± 0.14
AUCUAGCAAUAUUACGCUGU	-1.61 ± 0.14	-1.17 ± 0.18
ACCUAGCAAUAUUACGGUAU	-3.08 ± 0.14	-1.44 ± 0.11
GUGGAGCAAUAUUACGAUAU	-1.83 ± 0.17	-0.975 ± 0.15
GAUCAGCAAUAUUACGCUAA	-1.11 ± 0.12	-0.316 ± 0.15
UAUCAGCAAUAUUACGUAGA	-0.562 ± 0.058	-0.0988 ± 0.081
UUUAAGCAAUAUUACGCCGG	-0.192 ± 0.089	0.194 ± 0.11
CCCGAGCAAUAUUACGCAUA	-3.7 ± 0.43	-2.06 ± 0.21
GAUAAGCAAUAUUACGAAGU	-2.4 ± 0.18	-1.15 ± 0.23
GGCUAGCAAUAUUACGUGAU	-0.939 ± 0.099	-0.509 ± 0.11
GGUGAGCAAUAUUACGGUUC	-1.21 ± 0.23	-0.574 ± 0.4
AAGUAGCAAUAUUACGUGUC	-2.83 ± 0.27	-2.4 ± 0.28
GAUCAGCAAUAUUACGUAGU	-0.663 ± 0.1	-0.885 ± 0.1
GAGCAGCAAUAUUACGUUUA	-1.17 ± 0.092	-1 ± 0.097
ACAAAGCAAUAUUACGCCUU	-2.01 ± 0.075	-0.625 ± 0.087
AACAAGCAAUAUUACGCGAA	-1.78 ± 0.073	-0.546 ± 0.084
AUUGAGCAAUAUUACGCCGG	-2.87 ± 0.33	-2.53 ± 0.48
GCAUAGCAAUAUUACGCAUU	-2.81 ± 0.26	-0.0868 ± 0.17

Sequence	self-splicing fitness (ln) (30 °C)	self-splicing fitness (ln) (37 °C)
CGGGAGCAAUAUUACGUUAG	-3.18 ± 0.26	-1.9 ± 0.29
CGGCAGCAAUAUUACGACCA	-0.307 ± 0.1	0.682 ± 0.14
GGCCAGCAAUAUUACGCGCC	-3.11 ± 0.24	-2.05 ± 0.44
UCUCAGCAAUAUUACGUGUU	-3.47 ± 0.14	-2.73 ± 0.15
AUGGAGCAAUAUUACGCUAU	-3.89 ± 0.15	-2.4 ± 0.22
UGGAAGCAAUAUUACGUGCU	-2.92 ± 0.19	-1.7 ± 0.17
AUAAAGCAAUAUUACGAACU	0.222 ± 0.095	0.227 ± 0.11
UAGUAGCAAUAUUACGGUGU	-3.57 ± 0.32	-3.21 ± 0.4
ACUAAGCAAUAUUACGAUUC	-2.12 ± 0.091	-0.397 ± 0.11
AAAAAGCAAUAUUACGUGCG	-0.427 ± 0.052	-0.846 ± 0.064
ACUGAGCAAUAUUACGAUGU	-2.83 ± 0.14	-2.67 ± 0.2
UUAGAGCAAUAUUACGCACU	-1.24 ± 0.23	-1.78 ± 0.44
AAUUAGCAAUAUUACGUCAC	-3.93 ± 0.36	-2.41 ± 0.33
AGAAAGCAAUAUUACGUGCU	-0.713 ± 0.063	-1.28 ± 0.092
UAGGAGCAAUAUUACGCGUU	-4.38 ± 0.24	-1.37 ± 0.14
CAGCAGCAAUAUUACGACAU	-3.505 ± 0.021	-1.82 ± 0.034
CGCCAGCAAUAUUACGGUGA	-1.98 ± 0.11	-1.84 ± 0.11
CUUGAGCAAUAUUACGCCCU		-2.21 ± 0.46
GAGAAGCAAUAUUACGUAGA	-2 ± 0.14	-0.626 ± 0.14
AGCAAGCAAUAUUACGCCCC	0.415 ± 0.15	-0.728 ± 0.18
CGCGAGCAAUAUUACGUGCC	-3.8 ± 0.42	-2.96 ± 0.48
ACGUAGCAAUAUUACGUUAC	-3.3 ± 0.23	-2.83 ± 0.26
GGCAAGCAAUAUUACGCUGC	-3.37 ± 0.27	
AGAUAGCAAUAUUACGUGAG	-1.89 ± 0.072	-0.685 ± 0.08
